In article PMC11448073 (Microbiology Spectrum, 2024) one finds binding result and Kd data, which are given here for four molecules.

Experiment [1] addresses T1, SARS-CoV-2 nucleocapsid protein (N) (SARS-CoV-2, strain , UniProt P0DTC9).
T1 construct: also called SARS-CoV-2 NPs
Put plainly: ELISA. (In an ELISA, binding on a coated surface is turned into a signal by an enzyme label.)

The target in experiment [2] is fraction 1 capsular antigen (F1) of Yersinia pestis (Yersinia pestis EV strain, UniProt P26948). Description: BLI. The conditions noted are these: both partners purified.
For experiment [3] the target is unchanged. Description: ELISA. The conditions noted are these: both partners purified.

B1: human monoclonal antibody F3 (antibody, V domains shown)
VH: EVQLLESGGGVVQPGRSLRLSCAASGFTFSRYGMHWVRQAPGKGLEWVAVISHDGNIKYYGDSVKGRFTISRDNSKNTLYLQMNSLRVEDTAVYYCAKDRGKFDSWGQGTLVTVSS
VL: not shown
notes: also called F3-HRP; source: Expi293F, cotransfected heavy and light chain plasmids, purified (Protein A); copies: 2 + 2
In the case of B1, the binding result in experiment [1] is recorded as “no binding”.

B2: human monoclonal antibody F19 (antibody, V domains shown)
VH: EVQLLESGGGVVQPGGSLRLSCAASGFTFDDYAMHWVRQVPGKGLEWVSLISGDGGSTSYADSVKGRFTISRDNSKNSLYLQMSSLRTEDTALYYCAKDRGRAWIDYWGQGTLVTVSS
VL: not shown
notes: also called HRP-conjugated F19; source: Expi293F, cotransfected heavy and light chain plasmids, purified (Protein A); copies: 2 + 2
With B2, the binding result in experiment [1] was “no binding”. The molecule further returned a Kd in experiment [2] of 165 pM.

B3: human monoclonal antibody F23 (antibody, V domains shown)
VH: EVQLLESGGGVVQPGRSLRLSCAASGFTFSSYAMHWVRQAPGKGLEWVAAILYDGSNKNYADSVKGRFTISRDNSKNTLYLQMNSLRAEDTAVYYCARGTPAMVRGVIGPLFEHWGQGTLVTVSS
VL: DIQMTQSPDSLAVALGERATINCKSSQSVLYTSNNKNYLAWYQKKPGQPPKLLIYWASTRESGVPDRFSGSGSGTDFTLTISSLQPEDVAVYYCQQYFILPRTFGQGTKLEIK
notes: also called HRP-conjugated F23; source: Expi293F, cotransfected heavy and light chain plasmids, purified (Protein A); copies: 2 + 2
As to B3, the binding result in experiment [1] is reported as “no binding”.

B4: human anti-F1 monoclonal antibody αF1Ig8 (antibody, V domains shown)
VH: QVQLQQWGAGLLKPSETLSLTCAVYGGSFSGYYWSWIRQPPGKGLEWIGEINHSGNTNYNPSLKSRVTISVDTSKNQFSLQLNSVTPEDTAVYYCARTRGYFDLWGRGTLVTVSS
VL: DIRMTQSPSSLSASVGDRVTITCRASQSISSYLNWYQQKPGKAPKLLIYATSSLQSGVPSRFSGSGSGTDFTLTISSLQFEDFATYYCQQSYSTPSSFGQGTKVDIK
notes: source: EXPi293F, synthesized expression plasmids
Regarding B4, the binding result in experiment [3] was “binds”.

Broadly, the Kd is the equilibrium constant for the complex coming apart. The low end stands for higher affinity, the high end for lower affinity.
